Test results as given in patent US20190015518A1, “DRUG DELIVERY COMPOSITIONS AND METHODS” (priority 2016, published 2019).
Where “and” joins values, the source holds several entries; their conditions need not be identical. Equal entries are not always repeated.

Columns and labels:
[1] = Viscosity reduction by excipients (rheometer); format: physicochemical
Method: The viscosity of 29 kDa HA (60 mg/mL), 33HA-Lys (33 kDa HA with linker, 8 mg/mL on HA basis), and 33HA-Lys-Pt (41.7 mg/mL on HA basis) with increasing concentration of mannitol (0, 0.1, 0.5 and 1 M) were measured using a rheometer at 37° C.
The solutions were incubated in the dark for 20 hours using a CLAY ADAMS® Brand Nutator. After 20 hours, the pH of the solutions were adjusted to pH 6.0 using 1N NaOH. A Brookfield DVIII Ultra Programmable Rheometer was used to measure the viscosity of three 500-μL samples of each solution. Measurements were taken for each at three different RPMs, where the torque ranged from 10-100%. Values for viscosity were not recorded until at least 30 seconds after the motor was started, after the torque readings were stabilized.
The solutions were incubated in the dark for 20 hours using a CLAY ADAMS® Brand Nutator. After 20 hours, the pH of the solutions were adjusted to pH 5.0 or 6.0 using 1N NaOH. A Brookfield DVIII Ultra Programmable Rheometer was used to measure the viscosity of three 500-μL samples of each solution. Measurements were taken for each at three different RPMs, where the torque ranged from 10-100%. Values for viscosity were not recorded until at least 30 seconds after the motor was started, after the torque readings were stabilized.

Plasma Pt quantitation = details: s.c. 10 mg/kg, between 24 and 72 hours
Method: Whole blood was centrifuged (1500×g, 5 min., 4° C., no brake). Top layer (plasma) and middle layer (white blood cells) were transferred to new tubes. Plasma was frozen (−20° C.) until analysis. […] The white blood cell pellet was washed twice with cold PBS and re-suspended in 9 mL of white blood cell buffer (10-mM Tris, pH 7.4, 2.3% NaCl, 2-mM EDTA), and 900 μL of 1.1-M NH4HCO3, 900 μL of 10% SDS, and 75 μL of 2% Proteinase K were added and incubated at 42° C. overnight. Then, 3.3 mL of 5-M NaCl was added, samples shaken vigorously, and centrifuged twice (3200×g, 5 min, 4° C.), each time discarding the pellet. DNA was pelleted with 20 mL of ice-cold 100% ethanol and centrifuged (3200×g, 5 min, 4° C.); the DNA pellet was washed twice with 75% ethanol, re-suspended in water, and quantitated. DNA was digested in 1% HNO3 (800 μL total volume) overnight at 70° C. DNA samples were diluted 1:10 in 1% HNO3 and plasma samples were diluted 1:10,000 in 1% HNO3. Diluted samples were analyzed for Pt content using ICP-MS with a calibration curve from 1-1000 ppt.

[2] = Urinalysis of a healthy dog given 1.5 mg/kg on day 1 and 2.0 mg/kg on day 70, sub-mucosa; format: in vivo
Method: Before each dose, the dog was examined by clinical chemistry, hematology, and urinalysis. Additional examinations of clinical chemistry and hematology were performed on days 7, 14, and 42 after the first dose. Additional tests of urinalysis were performed on days 7 and 14 after the first dose. The potential drug-induced toxicities were monitored for 56 days after the second dose. Specifically, clinical chemistry and urinalysis were performed on days 7, 14, 21, and 56, and hematology was performed on days 7, 14, and 56 after the second dose to evaluate the tolerability and toxicity of the formulation.
Urianlyses were performed at pre- and post-dose for both injections. The injections were given via the sub-mucosa in the mouth.

Substance: HA-cis-[Pt(NH3)2(N^α-Acetyl-L-Lysine)] [75HA-Lys-Pt]
- percent reduction of viscosity ([1]; 12 mM CaAc2, pH 5.0): 25.1-78.0%
- percent reduction of viscosity ([1]; 12 mM CaAc2, pH 6.0): 21.4-81.0%
- percent reduction of viscosity ([1]; 12 mM NaCl, pH 5.0): 36.6-83.2%
- percent reduction of viscosity ([1]; 12 mM calcium lactate, pH 5.0): 23.0-71.8%
- percent reduction of viscosity ([1]; 12 mM calcium lactate, pH 6.0): 24.3-80.9%
- percent reduction of viscosity ([1]; 12 mM sodium acetate and trehalose 15% wt, pH 5.0, two batches): 54.1% and 84.3%
- percent reduction of viscosity ([1]; 12 mM sodium acetate, pH 5.0): 14.5-89.2%
- percent reduction of viscosity ([1]; 12 mM sodium carbonate and trehalose 15% wt, pH 5.0): 48.5-99.0%
- percent reduction of viscosity ([1]; 12 mM sodium carbonate, pH 5.0): 60.6-99.2%
- percent reduction of viscosity ([1]; 12 mM sodium citrate and trehalose 15% wt, pH 5.0): 15.6-95.4%
- percent reduction of viscosity ([1]; 12 mM sodium citrate, pH 5.0): 38.4-97.2%
- percent reduction of viscosity ([1]; CaCl2-containing PBS buffer, pH 6.0, three batches): 55.2-88.6%
- percent reduction of viscosity ([1]; Sodium Chelex 100, pH 5.0, two batches): 82.0% and 91.7%
- percent reduction of viscosity ([1]; buffer-free CaCl2, pH 5.0, three batches): 32.1-76.6%
- percent reduction of viscosity ([1]; buffer-free CaCl2, pH 6.0, three batches): 26.6-77.0%
- plasma Pt plateau concentration (Plasma Pt quantitation): 4-5 μg Pt/mL plasma
- Urobilinogen ([2]; 2 mg/kg, 7 days after): 0.2 E.U./dL
- urine Bilirubin ([2]; 2 mg/kg, 7 days after): Moderate
- urine Blood ([2]; 2 mg/kg, 7 days after): Negative
- urine Clarity ([2]; 2 mg/kg, 7 days after): Clear
- urine Color ([2]; 2 mg/kg, 7 days after): Dark Yellow
- urine Glucose ([2]; 2 mg/kg, 7 days after): Negative
- urine Ketones ([2]; 2 mg/kg, 7 days after): Negative
- urine Leukocytes ([2]; 2 mg/kg, 7 days after): Negative
- urine Nitrite ([2]; 2 mg/kg, 7 days after): Negative
- urine Protein ([2]; 2 mg/kg, 7 days after): 30 mg/dL
- urine Specific Gravity ([2]; 2 mg/kg, 7 days after): 1.053
- urine pH ([2]; 2 mg/kg, 7 days after): 7.0
- Urobilinogen ([2]; 2 mg/kg, 14 days after): 0.2 E.U./dL
- urine Bilirubin ([2]; 2 mg/kg, 14 days after): Negative
- urine Blood ([2]; 2 mg/kg, 14 days after): Large
- urine Clarity ([2]; 2 mg/kg, 14 days after): Clear
- urine Color ([2]; 2 mg/kg, 14 days after): Light Yellow
- urine Glucose ([2]; 2 mg/kg, 14 days after): 100 mg/dL
- urine Ketones ([2]; 2 mg/kg, 14 days after): Negative
- urine Leukocytes ([2]; 2 mg/kg, 14 days after): Negative
- urine Nitrite ([2]; 2 mg/kg, 14 days after): Negative
- urine Protein ([2]; 2 mg/kg, 14 days after): ≥300 mg/dL
- urine Specific Gravity ([2]; 2 mg/kg, 14 days after): 1.010
- urine pH ([2]; 2 mg/kg, 14 days after): 7.5
- Urobilinogen ([2]; 2 mg/kg, 21 days after): 1.0 E.U./dL
- urine Bilirubin ([2]; 2 mg/kg, 21 days after): Moderate
- urine Blood ([2]; 2 mg/kg, 21 days after): Small
- urine Clarity ([2]; 2 mg/kg, 21 days after): Clear
- urine Color ([2]; 2 mg/kg, 21 days after): Dark Orange
- urine Glucose ([2]; 2 mg/kg, 21 days after): Negative
- urine Ketones ([2]; 2 mg/kg, 21 days after): Trace
- urine Leukocytes ([2]; 2 mg/kg, 21 days after): Negative
- urine Nitrite ([2]; 2 mg/kg, 21 days after): Negative
- urine Protein ([2]; 2 mg/kg, 21 days after): 30 mg/dL
- urine Specific Gravity ([2]; 2 mg/kg, 21 days after): 1.044
- urine pH ([2]; 2 mg/kg, 21 days after): 7.0
- Urobilinogen ([2]; 2 mg/kg, 56 days after): 1.0 E.U./dL
- urine Bilirubin ([2]; 2 mg/kg, 56 days after): Moderate
- urine Blood ([2]; 2 mg/kg, 56 days after): Large
- urine Clarity ([2]; 2 mg/kg, 56 days after): Clear
- urine Color ([2]; 2 mg/kg, 56 days after): Dark Orange
- urine Glucose ([2]; 2 mg/kg, 56 days after): Negative
- urine Ketones ([2]; 2 mg/kg, 56 days after): Negative
- urine Leukocytes ([2]; 2 mg/kg, 56 days after): Negative
- urine Nitrite ([2]; 2 mg/kg, 56 days after): Negative
- urine Protein ([2]; 2 mg/kg, 56 days after): 30 mg/dL
- urine Specific Gravity ([2]; 2 mg/kg, 56 days after): 1.030
- urine pH ([2]; 2 mg/kg, 56 days after): 8.0
- Urobilinogen ([2]; […], 7 days after): 0.2 E.U./dL
- urine Bilirubin ([2]; […], 7 days after): Negative
- urine Blood ([2]; […], 7 days after): Negative
- urine Clarity ([2]; […], 7 days after): Cloudy
- urine Color ([2]; […], 7 days after): Yellow
- urine Glucose ([2]; […], 7 days after): Negative
- urine Ketones ([2]; […], 7 days after): Negative
- urine Leukocytes ([2]; […], 7 days after): Negative
- urine Nitrite ([2]; […], 7 days after): Negative
- urine Protein ([2]; […], 7 days after): Negative
- urine Specific Gravity ([2]; […], 7 days after): 1.023
- urine pH ([2]; […], 7 days after): 8.0
- Urobilinogen ([2]; […], 14 days): 0.2 E.U./dL
- urine Blood ([2]; […], 14 days): Large
- urine Clarity ([2]; […], 14 days): Cloudy
- urine Color ([2]; […], 14 days): Yellow
- urine Glucose ([2]; […], 14 days): Negative
- urine Ketones ([2]; […], 14 days): Negative
- urine Leukocytes ([2]; […], 14 days): Negative
- urine Nitrite ([2]; […], 14 days): Negative
- urine Protein ([2]; […], 14 days): 30 mg/dL
- urine Specific Gravity ([2]; […], 14 days): 1.038
- urine pH ([2]; […], 14 days): 6.5
- long-term renal damage ([2]; healthy dog): did not appear to cause long-term renal damage
